Test results published in paper PMC10184318, “The fission yeast cytokinetic ring component Fic1 promotes septum formation” (Biology Open, 2023).

Target: T1, Fic1-MBP (S. pombe, UniProt O94701 1-272)
T1 construct: Fic1 of S. pombe; The printed name puts MBP after Fic1; source: E. coli, purified (standard biochemistry techniques)
T1 sequence (looked up): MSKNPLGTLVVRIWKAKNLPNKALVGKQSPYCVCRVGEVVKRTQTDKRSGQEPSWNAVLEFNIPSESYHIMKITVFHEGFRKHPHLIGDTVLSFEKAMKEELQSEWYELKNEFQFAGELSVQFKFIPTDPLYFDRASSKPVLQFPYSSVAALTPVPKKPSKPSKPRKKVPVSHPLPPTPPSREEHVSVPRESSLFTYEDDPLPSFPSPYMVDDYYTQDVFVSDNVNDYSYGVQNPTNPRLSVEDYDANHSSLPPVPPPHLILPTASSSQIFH
Assay: pull-down; in vitro binding assay with recombinant proteins, one bead-bound and one soluble; 20 mM Tris pH 7.4, 150 mM NaCl; 4°C, 1 h; three washes; SDS-PAGE and Coomassie staining
Settings: both partners purified

binding result: binds
B1: Cyk3-SH3-GST (aa1-66) (domain or fragment, S. pombe, UniProt O14302 1-66, looked up)
chain: MSIPKQLPCMVRALYAWPGEREGDLKFTEGDLIECLSIGDGKWWIGRHINTNTQGIFPSNFVHCLD
notes: Cyk3 of S. pombe, SH3 domain, residues 1-66; The printed name puts GST after the SH3 domain (Cyk3-SH3-GST, against GST-Cdc15-SH3), which hints at a C-terminal GST; also called Cyk3's SH3 domain; source: E. coli, purified (standard biochemistry techniques)
